Results taken from the RNAGym collection of RNA variant scans (doi:10.7554/elife.80360).

B1: HDV Ribozyme (parent)
chain: GGCCGGCAUGGUCCCAGCCUCCUCGCUGGCGCCGGCUGGGCAACAUUCCGAGGGGACCGUCCCCUCGGUAAUGGCGAAUGGGACCCA

Variants of: B1
Experiment: self-cleavage, relative activity (ratio to wild type); higher = more cleavage; co-transcriptional

Row | Variant | self-cleavage
1 | GGCCGGCAUUGUCCCAGCCUCCUCGCUGGCGCCGGCUGGGCAACAUUCCGAGGGGUCCGUCCCCUCGGUAAUGGCGAAUGGGACCCA [G10U A56U] | 0.893
2 | GGCCGGCAUUGUCCCAGCCUCCUCGCUGGCGCCGGCUGGGCAACAUUCCGAGGGGGCCGUCCCCUCGGUAAUGGCGAAUGGGACCCA [G10U A56G] | 0.689
3 | GGCCGGCAUUGUCCCAGCCUCCUCGCUGGCGCCGGCUGGGCAGCAUUCCGAGGGGACCGUCCCCUCGGUAAUGGCGAAUGGGACCCA [G10U A43G] | 0.0604
4 | GGCCGGCAUUGUCCCAGCCUCCUCGCUGGCGCCGGCUGGGCACCAUUCCGAGGGGACCGUCCCCUCGGUAAUGGCGAAUGGGACCCA [G10U A43C] | 0.115
5 | GGCCGGCAUUGUCCCAGCCUCCUCGCUGGCGCCGGCUGGGCAUCAUUCCGAGGGGACCGUCCCCUCGGUAAUGGCGAAUGGGACCCA [G10U A43U] | 0.284
6 | GGCCGGCAUUGUCCCAGCCUCCUCGCUGGCGCCGGCUGGGCCACAUUCCGAGGGGACCGUCCCCUCGGUAAUGGCGAAUGGGACCCA [G10U A42C] | 0.149
7 | GGCCGGCAUUGUCCCAGCCUCCUCGCUGGCGCCGGCUGGGCGACAUUCCGAGGGGACCGUCCCCUCGGUAAUGGCGAAUGGGACCCA [G10U A42G] | 0.325
8 | GGCCGGCAUUGUCCCAGCCUCCUCGCUGGCGCCGGCUGGGCUACAUUCCGAGGGGACCGUCCCCUCGGUAAUGGCGAAUGGGACCCA [G10U A42U] | 0.174
9 | GGCCGGCAUUGUACCAGCCUCCUCGCUGGCGCCGGCUGGGCAACAUUCCGAGGGGACCGUCCCCUCGGUAAUGGCGAAUGGGACCCA [G10U C13A] | 0.0332
10 | GGCCGGCAUUGUGCCAGCCUCCUCGCUGGCGCCGGCUGGGCAACAUUCCGAGGGGACCGUCCCCUCGGUAAUGGCGAAUGGGACCCA [G10U C13G] | 0
11 | GGCCGGCAUUGUCCCAGCCUCCUCGCUGGCGCCGGCUGGGCAACAUUCCGAGGGGACCGUCCCCUCGGUAAUGGCGAAUGGGUCCCA [G10U A83U] | 0.177
12 | GGCCGGCAUUGUCCCAGCCUCCUCGCUGGCGCCGGCUGGGCAACAUUCCGAGGGGACCGUCCCCUCGGUAAUGGCGAAUGGGGCCCA [G10U A83G] | 0.221
13 | GGCCGGCAUUGUCCUAGCCUCCUCGCUGGCGCCGGCUGGGCAACAUUCCGAGGGGACCGUCCCCUCGGUAAUGGCGAAUGGGACCCA [G10U C15U] | 0.445
14 | GGCCGGCAUUGUCCAAGCCUCCUCGCUGGCGCCGGCUGGGCAACAUUCCGAGGGGACCGUCCCCUCGGUAAUGGCGAAUGGGACCCA [G10U C15A] | 0.222
15 | GGCCGGCAUUGUCCGAGCCUCCUCGCUGGCGCCGGCUGGGCAACAUUCCGAGGGGACCGUCCCCUCGGUAAUGGCGAAUGGGACCCA [G10U C15G] | 0.0773
16 | GGCCGGCAUUGUCCCAGCCUCAUCGCUGGCGCCGGCUGGGCAACAUUCCGAGGGGACCGUCCCCUCGGUAAUGGCGAAUGGGACCCA [G10U C22A] | 0.0941

Row | Variant | self-cleavage
17 | GGCCGGCAUUGUCACAGCCUCCUCGCUGGCGCCGGCUGGGCAACAUUCCGAGGGGACCGUCCCCUCGGUAAUGGCGAAUGGGACCCA [G10U C14A] | 0
18 | GGCCGGCAUUGUCGCAGCCUCCUCGCUGGCGCCGGCUGGGCAACAUUCCGAGGGGACCGUCCCCUCGGUAAUGGCGAAUGGGACCCA [G10U C14G] | 0.166
19 | GGCCGGCAUUGUCCCAGUCUCCUCGCUGGCGCCGGCUGGGCAACAUUCCGAGGGGACCGUCCCCUCGGUAAUGGCGAAUGGGACCCA [G10U C18U] | 0.12
20 | GGCCGGCAUUGUCCCAGGCUCCUCGCUGGCGCCGGCUGGGCAACAUUCCGAGGGGACCGUCCCCUCGGUAAUGGCGAAUGGGACCCA [G10U C18G] | 0.111
21 | GGCCGGCAUUGUCCCAGCCUCCUCGCUGGCGCCGGCUGGGCAACAUUCCGAGGGGACCGUCCCCUCGGUAAUGGCGUAUGGGACCCA [G10U A77U] | 0.174
22 | GGCCGGCAUUGUCCCAGCCUCCUCGCUGGCGCCGGCUGGGCAACAUUCCGAGGGGACCGUCCCCUCGGUAAUGGCGGAUGGGACCCA [G10U A77G] | 0.424
23 | GGCCGGCAUUGUCCCAGCCUUCUCGCUGGCGCCGGCUGGGCAACAUUCCGAGGGGACCGUCCCCUCGGUAAUGGCGAAUGGGACCCA [G10U C21U] | 0.0532
24 | GGCCGGCAUUGUCCCAGCCUGCUCGCUGGCGCCGGCUGGGCAACAUUCCGAGGGGACCGUCCCCUCGGUAAUGGCGAAUGGGACCCA [G10U C21G] | 0
25 | GGCCGGCAUUGUCCCAGCCUACUCGCUGGCGCCGGCUGGGCAACAUUCCGAGGGGACCGUCCCCUCGGUAAUGGCGAAUGGGACCCA [G10U C21A] | 0.0332
26 | GGCCGGCAUUGUCCCAGCUUCCUCGCUGGCGCCGGCUGGGCAACAUUCCGAGGGGACCGUCCCCUCGGUAAUGGCGAAUGGGACCCA [G10U C19U] | 0.144
27 | GGCCGGCAUUGUCCCAGCCUCCUCGCUGGCGCCGGCUGGGCAACAUUCCGAGGGGACCGUCCCCUCGGUAAUGGCGAGUGGGACCCA [G10U A78G] | 0.449
28 | GGCCGGCAUUGUCCCAGCCUCCUCGCUGGCGCCGGCUGGGCAACAUUCCGAGGGGACCGUCCCCUCGGUAAUGGCGACUGGGACCCA [G10U A78C] | 0.0499
29 | GGCCGGCAUUGUCCCAGCCUCCUCGCUGGCGCCGGCUGGGCAACAUUCCGUGGGGACCGUCCCCUCGGUAAUGGCGAAUGGGACCCA [G10U A51U] | 0.767
30 | GGCCGGCAUUGUCCCAGCCUCCUCGCUGGCGCCGGCUGGGCAACAUUCCGCGGGGACCGUCCCCUCGGUAAUGGCGAAUGGGACCCA [G10U A51C] | 1.09
31 | GGCCGGCAUUGUCCCAGCCUCCUCGCUGGCGCCGGCUGGGCAACAUUCCGGGGGGACCGUCCCCUCGGUAAUGGCGAAUGGGACCCA [G10U A51G] | 0.707
32 | GGCCGGCAUUGUCCCAGCCUCCUCGCUGGCGCCGGCUGGGCAACAUUCCGAGGGGACCGUCCCCUCGGUACUGGCGAAUGGGACCCA [G10U A71C] | 0.604
